In patent US20240376171A1 (Hoffmann-La Roche, published 2024):

B1: human TA PD1-IL2v, MT204, 2xPQARK, N-term (antibody)
light: DIVMTQSPDSLAVSLGERATINCKASESVDTSDNSFIHWYQQKPGQSPKLLIYRSSTLESGVPDRFSGSGSGTDFTLTISSLQAEDVAVYYCQQNYDVPWTFGQGTKVEIKRTVAAPSVFIFPPSDEQLKSGTASVVCLLNNFYPREAKVQWKVDNALQSGNSQESVTEQDSKDSTYSLSSTLTLSKADYEKHKVYACEVTHQGLSSPVTKSFNRGEC
heavy: EVQLLESGGGLVQPGGSLRLSCAASGFSFSSYTMSWVRQAPGKGLEWVATISGGGRDIYYPDSVKGRFTISRDNSKNTLYLQMNSLRAEDTAVYYCVLLTGRVYFALDSWGQGTLVTVSSASTKGPSVFPLAPSSKSTSGGTAALGCLVKDYFPEPVTVSWNSGALTSGVHTFPAVLQSSGLYSLSSVVTVPSSSLGTQTYICNVNHKPSNTKVDKKVEPKSCDKTHTCPPCPAPEAAGGPSVFLFPPKPKDTLMISRTPEVTCVVVDVSHEDPEVKFNWYVDGVEVHNAKTKPREEQYNSTYRVVSVLTVLHQDWLNGKEYKCKVSNKALGAPIEKTISKAKGQPREPQVCTLPPSRDELTKNQVSLSCAVKGFYPSDIAVEWESNGQPENNYKTTPPVLDSDGSFFLVSKLTVDKSRWQQGNVFSCSVMHEALHNHYTQKSLSLSPG
chain: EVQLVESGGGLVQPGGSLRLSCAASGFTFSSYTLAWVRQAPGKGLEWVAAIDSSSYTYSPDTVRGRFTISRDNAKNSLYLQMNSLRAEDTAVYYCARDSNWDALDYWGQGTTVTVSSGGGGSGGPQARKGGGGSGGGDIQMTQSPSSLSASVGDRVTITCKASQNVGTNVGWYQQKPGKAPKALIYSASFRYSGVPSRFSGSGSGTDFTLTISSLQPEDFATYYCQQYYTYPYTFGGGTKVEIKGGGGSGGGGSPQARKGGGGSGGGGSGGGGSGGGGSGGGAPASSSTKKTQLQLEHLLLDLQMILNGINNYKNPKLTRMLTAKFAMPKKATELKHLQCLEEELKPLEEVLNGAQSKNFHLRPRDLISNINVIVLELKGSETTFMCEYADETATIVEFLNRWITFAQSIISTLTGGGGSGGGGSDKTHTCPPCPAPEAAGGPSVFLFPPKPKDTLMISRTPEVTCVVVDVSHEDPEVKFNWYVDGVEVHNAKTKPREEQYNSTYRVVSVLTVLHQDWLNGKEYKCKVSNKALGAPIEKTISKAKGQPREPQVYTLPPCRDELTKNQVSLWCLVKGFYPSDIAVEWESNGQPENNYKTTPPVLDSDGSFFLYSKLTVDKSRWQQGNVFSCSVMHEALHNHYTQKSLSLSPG
notes: One-armed human PD1-targeted human IgG PG LALA (knobs-into-holes); MT204 scFv-masked IL2v is fused N-terminally to the hinge of the Fc knob chain, with two PQARK sites; also called P1AG9597; P1AG9597-007
B2: human PD1-IL2v, unmasked, N-term (antibody, human IgG1, kappa, L234A L235A)
light: B1 light
heavy: EVQLLESGGGLVQPGGSLRLSCAASGFSFSSYTMSWVRQAPGKGLEWVATISGGGRDIYYPDSVKGRFTISRDNSKNTLYLQMNSLRAEDTAVYYCVLLTGRVYFALDSWGQGTLVTVSSASTKGPSVFPLAPSSKSTSGGTAALGCLVKDYFPEPVTVSWNSGALTSGVHTFPAVLQSSGLYSLSSVVTVPSSSLGTQTYICNVNHKPSNTKVDKKVEPKSCDKTHTCPPCPAPEAAGGPSVFLFPPKPKDTLMISRTPEVTCVVVDVSHEDPEVKFNWYVDGVEVHNAKTKPREEQYNSTYRVVSVLTVLHQDWLNGKEYKCKVSNKALGAPIEKTISKAKGQPREPQVCTLPPSRDELTKNQVSLSCAVKGFYPSDIAVEWESNGQPENNYKTTPPVLDSDGSFFLVSKLTVDKSRWQQGNVFSCSVMHEALHNHYTQKSLSLSPGK
chain: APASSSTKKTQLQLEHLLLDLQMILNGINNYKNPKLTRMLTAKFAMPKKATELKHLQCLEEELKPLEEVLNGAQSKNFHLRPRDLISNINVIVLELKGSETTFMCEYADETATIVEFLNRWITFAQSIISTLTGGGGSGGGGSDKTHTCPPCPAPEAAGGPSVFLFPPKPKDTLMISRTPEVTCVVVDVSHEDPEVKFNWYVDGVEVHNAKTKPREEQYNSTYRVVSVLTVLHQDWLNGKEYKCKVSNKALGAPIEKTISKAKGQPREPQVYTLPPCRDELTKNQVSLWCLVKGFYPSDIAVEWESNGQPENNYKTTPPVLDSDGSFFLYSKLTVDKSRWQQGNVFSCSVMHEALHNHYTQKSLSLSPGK
notes: One-armed human PD1-targeted human IgG PG LALA with IL2v fused N-terminally to the hinge of the Fc knob chain (non-masked control); also called P1AG3071; P1AG3071-004

What was measured:
[1] = target: T1, PD1 on activated human CD4 and CD8 T cells (human, UniProt Q15116 25-288); assay: flow cytometry, CD3/CD28-activated human PBMCs gated on CD3+CD8+ T cells, PE anti-human Fc secondary antibody; TA constructs pre-incubated with Matriptase, unmasked controls not
T1 construct: whole, on cells; Endogenous PD1 on CD3/CD28-stimulated T cells; also called human PD1; PD1 receptor
Description: (§1) Three formats of TA PD1-IL2v molecules and respective controls were assessed for their capacity to bind to activated PD1 positive CD8 T cells and CD4 T cells within PBMCs in comparison to the respective unmasked molecules.
(§2) PBMCs were purchased from Biomex from a healthy donor (Lot 5000729PB). The PBMCs were stimulated for three days with CD3 and CD28 to induce upregulation of PD1 on T cells. Therefore, PBMCs were seeded in medium (RPMI1640, 10% FCS, 2 mM Glutamine) into cell culture flasks that were coated for 1 hour at 37° C. with 1 μg/ml CD3 (clone OKT3, 302914, BioLegend). CD28 was added in solution to the PBMCs at a concentration of 1 μg/ml (clone CD28.2, 302914, BioLegend). After three days, PBMCs were harvested and transferred into a 96 well round bottom plate (200′000 cells per well). The cells were washed with FACS buffer (PBS, 2% FBS, 5 mM EDTA, 0.025% NaN3) and stained with 30 μl of corresponding TA PD1-IL2v constructs in FACS buffer for 30 min at 4° C. Prior to the staining, 20 μg of the TA PD1-IL2v constructs were digested with 4 μl Matriptase (Enzo ˜2.5 U/μl, ALX-201-246-U25, Lot 12152015, or without Matriptase for the unmasked controls) for 2 hours at 37° C. in 40 μl Matriptase buffer (50 mM Tris, 50 mM NaCl, 0.01% Tween 20, pH 9.0). After the staining, the cells were washed twice with FACS buffer to remove unbound molecules. Then 30 μl of the diluted PE anti-human Fc specific secondary antibody (1:50 dilution, 109-116-170, Jackson ImmunoResearch) was added to the cells. After 30 min incubation at 4° C. the cells were washed twice with FACS buffer. To detect T cells, PBMCs were stained with 30 μl of a mixture of CD3 PE/Cyanine7 (clone UCHT1, 300420, BioLegend), CD4 FITC (clone RPA-T4, 300528, BioLegend) and CD8 APC/Cyanine7 (clone HIT8a, 300926, BioLegend) for 30 min at 4° C. The unbound antibodies were removed by washing twice with FACS buffer. Finally the cells resuspended in 150 μl FACS buffer and measured using a BD Fortessa gating on CD3+CD4+ cells (CD4 T cells) and CD3+CD8+ cells (CD8 T cells).

[2] = target: T1, PD1 on activated human CD4 and CD8 T …; assay: flow cytometry, CD3/CD28-activated human PBMCs gated on CD3+CD4+ T cells, PE anti-human Fc secondary antibody; TA constructs pre-incubated with Matriptase, unmasked controls not
Description: as §1, §2

[3] = target: T1, PD1 on activated human CD4 and CD8 T …; assay: flow cytometry on CD3/CD28-activated T cells (CD4 and CD8) within human PBMCs; construct digested with matriptase; PE anti-human Fc secondary
Description: as §2, with “Then 30 μl of the diluted PE anti-human Fc specific secondary antibody (1:50 dilution, 109-116-170, Jackson ImmunoResearch) was added to the cells. After 30 min incubation at 4° C. the cells were washed twice with FACS buffer. To detect T cells, PBMCs were stained with 30 μl of a mixture of CD3 PE/Cyanine7 (clone UCHT1, 300420, BioLegend), CD4 FITC (clone RPA-T4, 300528, BioLegend) and CD8 APC/Cyanine7 (clone HIT8a, 300926, BioLegend) for 30 min at 4° C. The unbound antibodies were removed by washing twice with FACS buffer.” left out

[4] = target: T1, PD1 on activated human CD4 and CD8 T …; assay: flow cytometry on CD3/CD28-activated T cells (CD4 and CD8) within human PBMCs; no matriptase; PE anti-human Fc secondary
Description: as §2, with “Then 30 μl of the diluted PE anti-human Fc specific secondary antibody (1:50 dilution, 109-116-170, Jackson ImmunoResearch) was added to the cells. After 30 min incubation at 4° C. the cells were washed twice with FACS buffer. To detect T cells, PBMCs were stained with 30 μl of a mixture of CD3 PE/Cyanine7 (clone UCHT1, 300420, BioLegend), CD4 FITC (clone RPA-T4, 300528, BioLegend) and CD8 APC/Cyanine7 (clone HIT8a, 300926, BioLegend) for 30 min at 4° C. The unbound antibodies were removed by washing twice with FACS buffer.” left out

T1 sequence (Q15116 25-288): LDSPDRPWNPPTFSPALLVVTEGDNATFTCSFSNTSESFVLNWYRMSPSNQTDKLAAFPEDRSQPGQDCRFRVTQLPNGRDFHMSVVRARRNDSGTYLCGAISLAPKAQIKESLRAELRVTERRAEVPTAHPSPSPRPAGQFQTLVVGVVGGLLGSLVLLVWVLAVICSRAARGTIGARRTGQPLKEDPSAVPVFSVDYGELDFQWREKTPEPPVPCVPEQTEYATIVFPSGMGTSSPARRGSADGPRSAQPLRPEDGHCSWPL

Row | Binder | EC50 (read off the curve) [1] [nM] | EC50 (read off the curve) [2] [nM] | fold binding capacity versus the "in line" and knob/hole formats [3] [fold] | fold binding capacity versus the "in line" and knob/hole formats [4] [fold]
1 | B1 | ~3 | ~2 | ~2 | 
2 | B2 | ~2 | ~1 |  | ~2
